# How the values were obtained:
# clh1_rat Cltc [1] = biological target: clh1_rat Cltc (UniProt P11442)
# clh1_rat Cltc [2] = biological target: clh1_rat Cltc (UniProt P11442); remark: listed apart in the source
# clh1_rat Cltc [3] = biological target: clh1_rat Cltc (UniProt P11442); remark: listed apart in the source
# Chain of clh1_rat Cltc (P11442 whole entry): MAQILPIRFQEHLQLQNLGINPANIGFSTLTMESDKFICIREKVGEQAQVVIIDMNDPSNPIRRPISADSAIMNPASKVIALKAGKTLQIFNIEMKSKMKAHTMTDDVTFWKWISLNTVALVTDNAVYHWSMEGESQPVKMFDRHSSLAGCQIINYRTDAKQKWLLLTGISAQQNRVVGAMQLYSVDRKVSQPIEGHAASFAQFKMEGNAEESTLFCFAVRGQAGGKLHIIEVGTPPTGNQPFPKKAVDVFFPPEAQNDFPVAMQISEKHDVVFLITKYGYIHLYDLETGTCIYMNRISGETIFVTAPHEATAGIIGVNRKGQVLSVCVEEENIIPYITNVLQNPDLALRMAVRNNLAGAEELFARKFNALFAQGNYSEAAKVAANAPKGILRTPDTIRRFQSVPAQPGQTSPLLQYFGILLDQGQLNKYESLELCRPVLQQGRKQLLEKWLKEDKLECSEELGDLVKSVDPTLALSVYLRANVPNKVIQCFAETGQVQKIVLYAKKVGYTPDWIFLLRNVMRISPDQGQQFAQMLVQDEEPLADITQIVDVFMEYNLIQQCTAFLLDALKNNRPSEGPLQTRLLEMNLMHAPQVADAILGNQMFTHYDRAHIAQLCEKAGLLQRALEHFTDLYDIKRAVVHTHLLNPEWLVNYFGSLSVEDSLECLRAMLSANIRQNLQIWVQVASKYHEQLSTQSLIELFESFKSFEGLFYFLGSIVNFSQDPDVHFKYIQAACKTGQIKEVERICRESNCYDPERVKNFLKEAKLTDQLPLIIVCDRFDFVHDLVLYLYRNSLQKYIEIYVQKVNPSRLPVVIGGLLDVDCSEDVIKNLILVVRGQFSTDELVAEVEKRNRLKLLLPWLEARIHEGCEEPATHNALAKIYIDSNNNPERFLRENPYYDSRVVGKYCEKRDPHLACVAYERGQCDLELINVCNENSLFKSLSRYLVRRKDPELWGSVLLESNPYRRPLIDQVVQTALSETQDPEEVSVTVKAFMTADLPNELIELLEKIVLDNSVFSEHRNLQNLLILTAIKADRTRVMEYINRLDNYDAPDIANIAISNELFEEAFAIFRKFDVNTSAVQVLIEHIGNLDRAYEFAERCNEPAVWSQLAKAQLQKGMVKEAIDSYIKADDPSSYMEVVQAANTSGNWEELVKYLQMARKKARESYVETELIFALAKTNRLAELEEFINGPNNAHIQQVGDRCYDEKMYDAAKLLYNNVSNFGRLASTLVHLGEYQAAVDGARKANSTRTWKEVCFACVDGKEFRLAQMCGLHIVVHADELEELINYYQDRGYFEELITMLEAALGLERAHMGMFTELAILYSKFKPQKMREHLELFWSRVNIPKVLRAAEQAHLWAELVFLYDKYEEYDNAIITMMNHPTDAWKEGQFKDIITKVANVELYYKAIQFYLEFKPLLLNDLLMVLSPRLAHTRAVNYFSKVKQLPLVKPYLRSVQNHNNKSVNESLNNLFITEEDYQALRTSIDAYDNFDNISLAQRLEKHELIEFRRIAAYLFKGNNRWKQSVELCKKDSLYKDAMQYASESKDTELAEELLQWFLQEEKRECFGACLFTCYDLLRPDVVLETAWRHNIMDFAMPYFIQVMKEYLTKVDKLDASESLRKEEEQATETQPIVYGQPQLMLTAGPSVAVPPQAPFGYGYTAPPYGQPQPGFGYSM
# Chain of Inositol polyphosphate 5-phosphatase OCRL (Homo sapiens), Q01968 I76Q (Q01968 whole entry I76Q): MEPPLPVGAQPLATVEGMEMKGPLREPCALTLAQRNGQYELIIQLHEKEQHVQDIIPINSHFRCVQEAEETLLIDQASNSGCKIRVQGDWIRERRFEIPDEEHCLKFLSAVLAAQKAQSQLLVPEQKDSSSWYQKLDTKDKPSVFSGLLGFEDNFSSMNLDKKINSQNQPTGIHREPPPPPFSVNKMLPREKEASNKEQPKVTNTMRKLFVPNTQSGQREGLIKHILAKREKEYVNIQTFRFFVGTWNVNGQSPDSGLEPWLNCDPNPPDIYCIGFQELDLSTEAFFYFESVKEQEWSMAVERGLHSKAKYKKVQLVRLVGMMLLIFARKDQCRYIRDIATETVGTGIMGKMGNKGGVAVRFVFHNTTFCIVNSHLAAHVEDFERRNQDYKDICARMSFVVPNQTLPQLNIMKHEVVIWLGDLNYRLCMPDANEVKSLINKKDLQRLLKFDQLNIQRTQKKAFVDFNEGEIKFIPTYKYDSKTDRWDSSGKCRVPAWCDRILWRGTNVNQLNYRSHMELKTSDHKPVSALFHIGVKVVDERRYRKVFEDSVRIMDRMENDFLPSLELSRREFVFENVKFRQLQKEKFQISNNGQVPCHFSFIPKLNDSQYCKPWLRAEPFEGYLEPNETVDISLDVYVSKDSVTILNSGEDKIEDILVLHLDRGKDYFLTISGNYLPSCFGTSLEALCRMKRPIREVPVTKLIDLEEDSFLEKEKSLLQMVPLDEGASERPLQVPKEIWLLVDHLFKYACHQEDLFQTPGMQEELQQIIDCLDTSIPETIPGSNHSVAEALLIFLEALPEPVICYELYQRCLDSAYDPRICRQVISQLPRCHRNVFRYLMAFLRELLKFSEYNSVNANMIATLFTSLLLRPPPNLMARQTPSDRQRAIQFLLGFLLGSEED
# Chain of Inositol polyphosphate 5-phosphatase OCRL (Homo sapiens), Q01968 I74Q (Q01968 whole entry I74Q): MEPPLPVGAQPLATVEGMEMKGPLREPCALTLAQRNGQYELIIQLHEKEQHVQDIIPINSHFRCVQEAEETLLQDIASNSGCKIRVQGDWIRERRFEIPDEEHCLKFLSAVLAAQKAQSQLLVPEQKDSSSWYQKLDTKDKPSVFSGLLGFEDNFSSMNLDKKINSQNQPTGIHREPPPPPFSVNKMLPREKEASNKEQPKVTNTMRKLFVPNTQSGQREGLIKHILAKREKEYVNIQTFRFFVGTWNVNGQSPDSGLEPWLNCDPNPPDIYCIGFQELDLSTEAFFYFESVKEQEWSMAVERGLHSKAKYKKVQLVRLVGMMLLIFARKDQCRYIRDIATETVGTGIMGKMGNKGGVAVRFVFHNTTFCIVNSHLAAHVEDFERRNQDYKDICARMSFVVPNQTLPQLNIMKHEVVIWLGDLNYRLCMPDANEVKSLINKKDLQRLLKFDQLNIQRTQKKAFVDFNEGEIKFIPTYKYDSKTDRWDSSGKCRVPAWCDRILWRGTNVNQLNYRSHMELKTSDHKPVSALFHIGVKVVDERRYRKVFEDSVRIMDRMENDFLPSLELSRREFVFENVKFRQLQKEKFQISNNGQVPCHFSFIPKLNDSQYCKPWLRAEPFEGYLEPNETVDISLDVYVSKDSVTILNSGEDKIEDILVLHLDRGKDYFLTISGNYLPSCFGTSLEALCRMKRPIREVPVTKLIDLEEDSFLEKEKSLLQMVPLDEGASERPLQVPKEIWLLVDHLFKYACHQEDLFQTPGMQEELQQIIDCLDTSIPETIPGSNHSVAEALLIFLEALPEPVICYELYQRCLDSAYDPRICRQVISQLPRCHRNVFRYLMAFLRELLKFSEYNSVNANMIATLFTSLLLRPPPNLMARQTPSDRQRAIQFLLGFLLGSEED
# Chain of Inositol polyphosphate 5-phosphatase OCRL (Homo sapiens), Q01968 L73S (Q01968 whole entry L73S): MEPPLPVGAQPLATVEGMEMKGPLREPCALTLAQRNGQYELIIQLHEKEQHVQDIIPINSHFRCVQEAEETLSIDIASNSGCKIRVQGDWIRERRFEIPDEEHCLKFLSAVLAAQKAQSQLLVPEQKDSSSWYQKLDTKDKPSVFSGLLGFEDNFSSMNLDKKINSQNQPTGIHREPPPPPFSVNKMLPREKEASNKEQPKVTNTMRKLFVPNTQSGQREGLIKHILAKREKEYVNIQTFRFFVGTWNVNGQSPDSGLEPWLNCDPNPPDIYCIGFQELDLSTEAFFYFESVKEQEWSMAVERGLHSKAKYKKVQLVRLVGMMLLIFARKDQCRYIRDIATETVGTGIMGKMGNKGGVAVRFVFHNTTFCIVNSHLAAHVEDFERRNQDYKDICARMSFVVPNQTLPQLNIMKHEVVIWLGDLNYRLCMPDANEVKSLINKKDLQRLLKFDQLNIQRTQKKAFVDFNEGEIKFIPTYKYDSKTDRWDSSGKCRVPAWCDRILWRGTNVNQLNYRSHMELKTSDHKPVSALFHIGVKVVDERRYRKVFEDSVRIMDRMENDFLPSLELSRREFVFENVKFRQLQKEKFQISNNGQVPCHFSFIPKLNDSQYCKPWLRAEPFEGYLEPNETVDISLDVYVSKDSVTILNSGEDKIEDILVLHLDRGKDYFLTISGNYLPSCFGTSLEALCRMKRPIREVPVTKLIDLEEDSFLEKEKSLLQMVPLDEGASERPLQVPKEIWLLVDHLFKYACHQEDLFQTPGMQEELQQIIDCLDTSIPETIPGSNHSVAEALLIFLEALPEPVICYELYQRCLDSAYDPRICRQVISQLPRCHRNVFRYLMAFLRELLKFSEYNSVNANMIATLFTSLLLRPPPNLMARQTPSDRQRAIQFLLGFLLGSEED
substance,measurement,setting,value
"Inositol polyphosphate 5-phosphatase OCRL (Homo sapiens), Q01968 I74Q",effect of a mutation on the interaction,clh1_rat Cltc [1],disrupting interaction
"Inositol polyphosphate 5-phosphatase OCRL (Homo sapiens), Q01968 I76Q",effect of a mutation on the interaction,clh1_rat Cltc [2],disrupting interaction
"Inositol polyphosphate 5-phosphatase OCRL (Homo sapiens), Q01968 L73S",effect of a mutation on the interaction,clh1_rat Cltc [3],disrupting interaction

# Reference: IntAct's records for PubMed 19536138
